Results from US20250011410A1 (INVETX, published 2025).
Positions count from the first letter of the chain named. Names may count otherwise.

B1: felinized clone 101 Fab-SASA variant F112P (VH) (Fab, V domains shown, not shown: small tags and cut ends)
VH: DVQLVESGGDLVKPGGSLRLTCVASGLSLTSSSMSWVRQAPGKGLQWVSTIYSNGGTYYTDSVKGRFTISKDNAENTLYLQMNNLKTEDTATYYCASIYYYDADYLHWYFDPWGQGALVTVSS
VL: EIQMTQSPTSLSASVGDRVTITCRASEGISNNLSWYQQTPGKAPKLLIYATSNLHSGVPSRFSGSGSGTDFTLTISSLQPEDFATYYCQQGYKWPLTFGGGTKLEITR
B2: felinized clone 101 Fab-SASA variant S30P (VL) (Fab, V domains shown, not shown: small tags and cut ends)
VH: B1 VH with P112F
VL: B1 VL with S30P
B3: felinized clone 101 Fab-SASA variant S28H (VH) (Fab, V domains shown, not shown: small tags and cut ends)
VH: B1 VH with S28H, P112F
VL: B1 VL
B4: felinized clone 101 Fab-SASA variant N53K (VL) (Fab, V domains shown, not shown: small tags and cut ends)
VH: B1 VH with P112F
VL: B1 VL with N53K
B5: felinized clone 101 Fab-SASA variant G55R (VH) (Fab, V domains shown, not shown: small tags and cut ends)
VH: B1 VH with G55R, P112F
VL: B1 VL
B6: felinized clone 101 Fab-SASA variant N53V (VL) (Fab, V domains shown, not shown: small tags and cut ends)
VH: B1 VH with P112F
VL: B1 VL with N53V
B7: felinized clone 101 Fab-SASA variant S30Y (VL) (Fab, V domains shown, not shown: small tags and cut ends)
VH: B1 VH with P112F
VL: B1 VL with S30Y
B8: felinized clone 101 Fab-SASA variant N53I (VL) (Fab, V domains shown, not shown: small tags and cut ends)
VH: B1 VH with P112F
VL: B1 VL with N53I
B9: felinized clone 101 Fab-SASA variant S30V (VL) (Fab, V domains shown, not shown: small tags and cut ends)
VH: B1 VH with P112F
VL: B1 VL with S30V
B10: felinized clone 101 Fab-SASA variant G55Y (VH) (Fab, V domains shown, not shown: small tags and cut ends)
VH: B1 VH with G55Y, P112F
VL: B1 VL
B11: felinized clone 101 Fab-SASA variant L54H (VL) (Fab, V domains shown, not shown: small tags and cut ends)
VH: B1 VH with P112F
VL: B1 VL with L54H
B12: felinized clone 101 Fab-SASA variant R24F (VL) (Fab, V domains shown, not shown: small tags and cut ends)
VH: B1 VH with P112F
VL: B1 VL with R24F
B13: felinized clone 101 Fab-SASA variant S30Q (VL) (Fab, V domains shown, not shown: small tags and cut ends)
VH: B1 VH with P112F
VL: B1 VL with S30Q
B14: felinized clone 101 Fab-SASA variant N53M (VL) (Fab, V domains shown, not shown: small tags and cut ends)
VH: B1 VH with P112F
VL: B1 VL with N53M
B15: felinized clone 101 Fab-SASA variant S31H (VH) (Fab, V domains shown, not shown: small tags and cut ends)
VH: B1 VH with S31H, P112F
VL: B1 VL
B16: felinized clone 101 Fab-SASA variant H55L (VL) (Fab, V domains shown, not shown: small tags and cut ends)
VH: B1 VH with P112F
VL: B1 VL with H55L
B17: felinized clone 101 Fab-SASA variant N31Q (VL) (Fab, V domains shown, not shown: small tags and cut ends)
VH: B1 VH with P112F
VL: B1 VL with N31Q
B18: felinized clone 101 Fab-SASA variant K64E (VH) (Fab, V domains shown, not shown: small tags and cut ends)
VH: B1 VH with K64E, P112F
VL: B1 VL
B19: felinized clone 101 Fab-SASA variant K64D (VH) (Fab, V domains shown, not shown: small tags and cut ends)
VH: B1 VH with K64D, P112F
VL: B1 VL
B20: felinized clone 101 Fab-SASA variant H55M (VL) (Fab, V domains shown, not shown: small tags and cut ends)
VH: B1 VH with P112F
VL: B1 VL with H55M
B21: felinized clone 101 Fab-SASA variant S30A (VL) (Fab, V domains shown, not shown: small tags and cut ends)
VH: B1 VH with P112F
VL: B1 VL with S30A
B22: felinized clone 101 Fab-SASA variant N53H (VL) (Fab, V domains shown, not shown: small tags and cut ends)
VH: B1 VH with P112F
VL: B1 VL with N53H
B23: felinized clone 101 Fab-SASA variant N53L (VL) (Fab, V domains shown, not shown: small tags and cut ends)
VH: B1 VH with P112F
VL: B1 VL with N53L
B24: felinized clone 101 Fab-SASA variant S30L (VL) (Fab, V domains shown, not shown: small tags and cut ends)
VH: B1 VH with P112F
VL: B1 VL with S30L
B25: felinized clone 101 Fab-SASA variant H55I (VL) (Fab, V domains shown, not shown: small tags and cut ends)
VH: B1 VH with P112F
VL: B1 VL with H55I

Molecular target: T1, canine NGF tagged at the C-terminus with the Flag tag (canine, UniProt A0A8I3PYI3 122-241)
T1 construct: mature; Expressed with baculovirus technology; also called feline NGF (processed form identical)
Test: SPR off-rate screen, Fab-SASA on BSA chip

T1 sequence (A0A8I3PYI3 entry or part of it): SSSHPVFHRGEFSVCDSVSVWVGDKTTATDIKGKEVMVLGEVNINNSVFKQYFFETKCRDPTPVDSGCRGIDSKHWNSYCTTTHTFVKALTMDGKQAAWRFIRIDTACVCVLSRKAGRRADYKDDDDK

Row | Binder | Kd [nM] | Ratio WT-kd/clone-kd | koff [s⁻¹] | kon [M⁻¹ s⁻¹]
1 | B1 | 1.39 | 1.71 | 0.000552 | 398000
2 | B2 | 2.56 | 1.41 | 0.00067 | 262000
3 | B3 | 2.55 | 1.18 | 0.000802 | 315000
4 | B4 | 2.04 | 1.58 | 0.000596 | 292000
5 | B5 | 1.23 | 6.41 | 0.000147 | 120000
6 | B6 | 1.42 | 2.32 | 0.000407 | 288000
7 | B7 | 2.2 | 1.21 | 0.000782 | 355000
8 | B8 | 1.41 | 2.42 | 0.000389 | 276000
9 | B9 | 1.68 | 1.95 | 0.000483 | 287000
10 | B10 | 1.83 | 2.25 | 0.000419 | 229000
11 | B11 | 1.65 | 1.68 | 0.00056 | 340000
12 | B12 | 2.28 | 1.44 | 0.000655 | 287000
13 | B13 | 1.25 | 2.91 | 0.000324 | 259000
14 | B14 | 1.87 | 1.46 | 0.000648 | 346000
15 | B15 | 1.98 | 1.54 | 0.000612 | 310000
16 | B16 | 1.58 | 2.26 | 0.000418 | 264000
17 | B17 | 1.47 | 1.96 | 0.00048 | 327000
18 | B18 | 2.42 | 1.98 | 0.000476 | 196000
19 | B19 | 1.63 | 1.7 | 0.000554 | 340000
20 | B20 | 0.935 | 3.02 | 0.000312 | 333000
21 | B21 | 1.05 | 3.23 | 0.000292 | 277000
22 | B22 | 1.95 | 1.5 | 0.000627 | 322000
23 | B23 | 2.08 | 1.41 | 0.000667 | 321000
24 | B24 | 1.87 | 1.86 | 0.000507 | 270000
25 | B25 | 1.31 | 2.16 | 0.000436 | 334000
